The source of these data is the supplement of paper PMC10126150.

± gives the standard deviation of the averaged measurements.
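Note: ATP exposure 15 min at 22 °C before imaging.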

For this data set, the system named is ATP. Kind of data set: switch fluorescence ratio, 500 uM ATP over buffer (Cy3 cluster intensity, sum of 5 cycles each) (fold (ratio)); higher = stronger signal-on switching upon ATP binding; sequences stand for … in TCGTCGGCAGCGTCAGATGTGTATAAGAGACAGTTTTTTTTTTTTTTTTTTTTTTTTT…TC. As to conditions: aptamer strand: ATP DNA aptamer (quencher-CACCTGGGGGAGTATTGCGGAGGAAGG + anchor), 100 nM annealed; ATP concentration: 500 uM. Summed up: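 Per cluster, summed Cy3 intensity from the target cycles was divided by that from the buffer cycles to give the fluorescence ratio, then averaged per switch-domain sequence. Clusters outside 100-1000 RFU were excluded. The Cy3-labelled switching-strand clusters, on a modified Illumina MiSeq flow-cell, were annealed to 100 nM quencher-labelled ATP aptamer and imaged in selection buffer, then after 15 min with 500 uM ATP at 22 °C, for five cycles with NaOH stripping and re-annealing between them.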
GGAATCAAGG: the switch fluorescence ratio amounted to 1.02 ± 0.035.

Consider CAATGGGATA, for which the switch fluorescence ratio was determined as 1.02 ± 0.032.

For the sequence GGGTTTTGAA, the switch fluorescence ratio is 0.984 ± 0.021.

With ACGGCCGGGG, the switch fluorescence ratio is 1.04 ± 0.027.

As for TTCTGGGGCT, the switch fluorescence ratio is 1.03 ± 0.017.

Regarding TTTTAGTGTT, the switch fluorescence ratio is 1 ± 0.013.

With GGGTTGAGAG, the switch fluorescence ratio worked out at 0.985 ± 0.026.

Take AACCATACGT: the switch fluorescence ratio was found to be 1.29 ± 0.032.

Take GGGAGGAATG: the switch fluorescence ratio amounted to 0.989 ± 0.021.

For TAAAGAAGAG, the switch fluorescence ratio came out at 0.977 ± 0.03.

Regarding CACGTTGTTT, the switch fluorescence ratio worked out at 0.9963 ± 0.0019.

Turning to CGTGGAAGGA, the switch fluorescence ratio was 0.997 ± 0.038.

Consider CCAGACCAGT, for which the switch fluorescence ratio is 1.011 ± 0.0024.

As for TGGGATTTTC, the switch fluorescence ratio came out at 1.03 ± 0.067.

On to ACAGTAAGAG, for which the switch fluorescence ratio is 1.03 ± 0.049.

For GGTCCTGGAC, the switch fluorescence ratio is 1.02 ± 0.019.

On to AAGGAGGGCA, for which the switch fluorescence ratio is 0.984 ± 0.016.

With TTAATTCGTC, the switch fluorescence ratio was determined as 0.949 ± 0.021.

In the case of AGTCGTATTT, the switch fluorescence ratio came out at 0.963 ± 0.019.

With GAGAGAGGGG, the switch fluorescence ratio stood at 0.984 ± 0.026.

In the case of TAAGTAGGGC, the switch fluorescence ratio was determined as 1.2 ± 0.18.

For GGTTGTAGTT, the switch fluorescence ratio stood at 0.963 ± 0.016.

GAGGGGAATT: the switch fluorescence ratio stood at 0.983 ± 0.014.

As for CAAGGGAAGT, the switch fluorescence ratio worked out at 0.978 ± 0.017.

In the case of TTTACCCCAA, the switch fluorescence ratio came to 1.15 ± 0.095.

Regarding AAATTGTATT, the switch fluorescence ratio was found to be 1 ± 0.024.

For TAAAAGGGAT, the switch fluorescence ratio was 1.01 ± 0.023.

For ATATAGGGGG, the switch fluorescence ratio came to 0.997 ± 0.014.

With GAGTTACTTT, the switch fluorescence ratio was determined as 1.02 ± 0.023.

Consider TATATACTGT, for which the switch fluorescence ratio amounted to 1.02 ± 0.03.

On to AAGTTGCTAG, for which the switch fluorescence ratio is 0.9976 ± 0.0048.

For the sequence CTTGTTCTTA, the switch fluorescence ratio stood at 0.996 ± 0.024.

Turning to TCGCAAAATA, the switch fluorescence ratio was 2.47 ± 1.2.

On to AAGTGAATAT, for which the switch fluorescence ratio stood at 1.012 ± 0.0095.

For the sequence ACGCTCCTAC, the switch fluorescence ratio stood at 2.64 ± 0.028.

Turning to GGTGATCCTG, the switch fluorescence ratio came to 0.977 ± 0.028.

On to GAATTCACGG, for which the switch fluorescence ratio came out at 1.06 ± 0.038.

For AAGGGTGTAA, the switch fluorescence ratio was 1.01 ± 0.069.

As for TTTGCCTGCT, the switch fluorescence ratio is 1.01 ± 0.043.

In the case of GGGTTATCCT, the switch fluorescence ratio stood at 1.07 ± 0.047.

Consider GGTCATTTTT, for which the switch fluorescence ratio was 0.995 ± 0.021.

With TTTCTTTTCT, the switch fluorescence ratio was 1.02 ± 0.032.

On to GGATGGTGGT, for which the switch fluorescence ratio is 1.01 ± 0.016.

TTAAGTGGTT: the switch fluorescence ratio was determined as 0.998 ± 0.011.

For the sequence TCAGTTTACG, the switch fluorescence ratio is 0.988 ± 0.019.

For the sequence AAGTTGGGG, the switch fluorescence ratio turned out to be 0.99 ± 0.039.

For GGGATGGGAC, the switch fluorescence ratio was found to be 1.043 ± 0.0081.

As to ATTTTCAGGG, the switch fluorescence ratio is 0.998 ± 0.067.

In the case of TCAGGGGTT, the switch fluorescence ratio was 1.15 ± 0.12.

Regarding ACTAATGCGC, the switch fluorescence ratio is 1.05 ± 0.019.

GGGAATAGCG: the switch fluorescence ratio was determined as 0.977 ± 0.046.

As for GGTGATAGGA, the switch fluorescence ratio was 0.98 ± 0.034.

As for TTTCTAGGGT, the switch fluorescence ratio came out at 0.994 ± 0.017.

For AGCTGAGGCT, the switch fluorescence ratio is 0.999 ± 0.015.

As to GCTTCTCTTA, the switch fluorescence ratio worked out at 0.974 ± 0.013.

Regarding TTTGAGTATA, the switch fluorescence ratio came to 0.992 ± 0.031.

On to AACCACGTTA, for which the switch fluorescence ratio was 1.09 ± 0.053.

In the case of ATTGGTGGGG, the switch fluorescence ratio is 0.982 ± 0.033.

In the case of TCACCTTGGA, the switch fluorescence ratio was found to be 1.05 ± 0.096.

For AGGATCGGGG, the switch fluorescence ratio turned out to be 1.01 ± 0.013.

For the sequence AACTGTTCTG, the switch fluorescence ratio stood at 1.01 ± 0.014.

For ATTTGGGGTT, the switch fluorescence ratio stood at 0.997 ± 0.031.

In the case of AGGGGGTTTT, the switch fluorescence ratio is 1 ± 0.036.

For CATATTATCA, the switch fluorescence ratio was determined as 1.02 ± 0.024.

Regarding GGGCGCTTTC, the switch fluorescence ratio came out at 1.03 ± 0.028.

TTAAGTTGCA: the switch fluorescence ratio was found to be 1.05 ± 0.028.

For the sequence CGGGAGGTGT, the switch fluorescence ratio stood at 1.029 ± 0.0037.

Consider GTGTGCTTTG, for which the switch fluorescence ratio was 0.998 ± 0.048.

On to TTGAGGGGCG, for which the switch fluorescence ratio was determined as 0.996 ± 0.044.

As to ACTAAATAGT, the switch fluorescence ratio came out at 0.987 ± 0.013.

For the sequence CGGCGTGGGG, the switch fluorescence ratio was found to be 1.03 ± 0.027.

Regarding TTGGAAAAAG, the switch fluorescence ratio is 1.1 ± 0.18.

With CTTTGATTGG, the switch fluorescence ratio amounted to 0.99 ± 0.04.

Turning to CAGGGGTATC, the switch fluorescence ratio amounted to 1.01 ± 0.033.

Regarding TACCCTTGGG, the switch fluorescence ratio came out at 0.9937 ± 0.0072.

Turning to TTGGTTTTTA, the switch fluorescence ratio amounted to 0.98 ± 0.018.

GACGCATTTT: the switch fluorescence ratio came to 2.18 ± 0.17.

Regarding AAGAATTTTG, the switch fluorescence ratio was 0.999 ± 0.027.
